B1: GST-p107 R1R2 [not stated] / B55α (PP2A regulatory subunit B55α), endogenous in U-2 OS cells [human (endogenous in U-2 OS)] (parent)
chain 1: KVPTCEEVIFPNNFETGNGGNVQGHLPLMPMSPLMHPRVKEVRTDSGSLRRDMQPLSPISVHERYSSPTAGSAKRRLF
chain 2: MAGAGGGNDIQWCFSQVKGAVDDDVAEADIISTVEFNHSGELLATGDKGGRVVIFQQEQENKIQSHSRGEYNVYSTFQSHEPEFDYLKSLEIEEKINKIRWLPQKNAAQFLLSTNDKTIKLWKISERDKRPEGYNLKEEDGRYRDPTTVTTLRVPVFRPMDLMVEASPRRIFANAHTYHINSISINSDYETYLSADDLRINLWHLEITDRSFNIVDIKPANMEELTEVITAAEFHPNSCNTFVYSSSKGTIRLCDMRASALCDRHSKLFEEPEDPSNRSFFSEIISSISDVKFSHSGRYMMTRDYLSVKIWDLNMENRPVETYQVHEYLRSKLCSLYENDCIFDKFECCWNGSDSVVMTGSYNNFFRMFDRNTKRDITLEASRENNKPRTVLKPRKVCASGKRKKDEISVDSLDFNKKILHTAWHPKENIIAVATTNNLYIFQDKVN

Variants of: B1
Experiment: GST pull-down, western blot
Conditions: with B55α (PP2A regulatory subunit B55α), U2-OS lysates, triplicate, read off a plot

ratio to parent | Variant
0.57 | chain 1 KVPTCEEVIFPNNFETGNGGNVQGHLPLMPMSPLMHPRVKEVRTDSGSLRRDMQPLSPISVHEAYSSPTAGSAKRRLF
